The record followed here is US20200317768A1 (published 2020).

Numbering of substitutions follows the chain as printed. In names and notes the source's numbering stands.

Common to all, as to assay: SPR (Biacore), antibody captured, FcgR analyte
Assay [1] deals with T1, cynomolgus monkey FcγRIIa1 extracellular domain, C-terminal His-tag (cynomolgus monkey).
T1 construct: also called cyno FcγRIIa1; cynoFcgRIIa1
T1 chain: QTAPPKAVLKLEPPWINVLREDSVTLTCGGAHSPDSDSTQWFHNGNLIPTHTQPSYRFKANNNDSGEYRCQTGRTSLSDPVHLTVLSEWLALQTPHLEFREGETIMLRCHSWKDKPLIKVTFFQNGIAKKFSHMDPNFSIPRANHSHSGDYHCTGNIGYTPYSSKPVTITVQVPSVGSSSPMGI

For assay [2], the target named is T2, cynomolgus monkey FcγRIIa2 extracellular domain, C-terminal His-tag (cynomolgus monkey).
T2 construct: also called cyno FcγRIIa2; cynoFcgRIIa2
T2 chain: T1 chain with P95T, T121A, I127K, A128S, K130N, D135N, R142Q

The target of assay [3] is T3, cynomolgus monkey FcγRIIa3 extracellular domain, C-terminal His-tag (cynomolgus monkey).
T3 construct: also called cyno FcγRIIa3; cynoFcgRIIa3
T3 chain: T1 chain with P95T, T121A, A128S, H133P, D135N

Assay [4] has as its target T4, cynomolgus monkey FcγRIIb extracellular domain, C-terminal His-tag (cynomolgus monkey).
T4 construct: also called cyno FcγRIIb; cynoFcγRIIb
T4 chain: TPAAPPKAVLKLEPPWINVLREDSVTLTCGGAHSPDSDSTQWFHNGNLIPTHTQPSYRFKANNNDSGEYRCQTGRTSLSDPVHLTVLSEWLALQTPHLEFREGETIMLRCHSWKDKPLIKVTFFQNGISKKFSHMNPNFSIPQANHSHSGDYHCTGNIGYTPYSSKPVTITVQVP

The target in assay [5] is T5, cynomolgus monkey FcγRIIIaS extracellular domain, C-terminal His-tag (cynomolgus monkey, UniProt Q8SPW2 21-206 at identity 1.00)).
T5 construct: also called cyno FcγRIIIaS; cynoFcγRIIIaS
T5 chain: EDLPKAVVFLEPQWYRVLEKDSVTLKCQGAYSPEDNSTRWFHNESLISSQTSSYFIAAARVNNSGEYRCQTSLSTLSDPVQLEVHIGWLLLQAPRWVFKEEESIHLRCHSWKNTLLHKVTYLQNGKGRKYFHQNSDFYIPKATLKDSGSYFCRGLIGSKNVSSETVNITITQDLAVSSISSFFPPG

In assay [6] the target is T6, human FcγRIIaH extracellular domain, C-terminal His-tag (human, UniProt P12318 34-217).
T6 construct: also called human FcγRIIa (type H); FcgRIIaH
T6 sequence: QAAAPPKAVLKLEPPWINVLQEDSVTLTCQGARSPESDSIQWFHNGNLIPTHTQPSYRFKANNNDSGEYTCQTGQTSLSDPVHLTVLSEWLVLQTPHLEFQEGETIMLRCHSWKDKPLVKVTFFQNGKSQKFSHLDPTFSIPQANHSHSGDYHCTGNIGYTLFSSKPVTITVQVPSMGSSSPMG

Assay [7] has as its target T7, human FcγRIIaR extracellular domain, C-terminal His-tag (human, UniProt P12318 34-217).
T7 construct: also called human FcγRIIa (type R); FcgRIIaR
T7 chain: T6 sequence with H134R

The target in assay [8] is T8, human FcγRIIb extracellular domain, C-terminal His-tag (human, UniProt P31994 43-217).
T8 construct: also called human FcgRIIb; FcgRIIb
T8 sequence: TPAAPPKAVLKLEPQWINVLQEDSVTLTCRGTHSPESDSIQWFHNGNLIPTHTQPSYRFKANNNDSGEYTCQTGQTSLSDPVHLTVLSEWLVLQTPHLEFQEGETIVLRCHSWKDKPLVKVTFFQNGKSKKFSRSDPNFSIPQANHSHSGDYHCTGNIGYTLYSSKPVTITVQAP

Assay [9] has as its target T9, human FcγRIIIaV extracellular domain, C-terminal His-tag (human, UniProt P08637 17-208).
T9 construct: also called human FcgRIIIaV; FcgRIIIaV

T9 sequence (P08637 17-208 F176V): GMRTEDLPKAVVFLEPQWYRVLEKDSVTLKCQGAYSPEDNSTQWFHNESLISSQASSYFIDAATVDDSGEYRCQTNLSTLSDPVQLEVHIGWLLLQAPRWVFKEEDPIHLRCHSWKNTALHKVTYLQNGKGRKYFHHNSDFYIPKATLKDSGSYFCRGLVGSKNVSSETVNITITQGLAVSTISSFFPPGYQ

B1: M103205H795-MY538/M103202L889-SK1 (Table 19: L235W/G236N/H268D/Q295L/K326T/A330K) (antibody, human IgG1, kappa)
heavy: QVTLKESGPVLVKPTETLTLTCTVSGIDLSHDDISWVRQAPGKGLEWVGIISYAGSTYYASWAKGRLTISKDTSKNQVVLTMTNMDPVDTATYYCARGVPAYSHGGDLWGQGTLVTVSSASTKGPSVFPLAPSSKSTSGGTAALGCLVKDYFPEPVTVSWNSGALTSGVHTFPAVLQSSGLYSLSSVVTVPSSSLGTQTYICNVNHKPSNTKVDKKVEPKSCDKTHTCPPCPAPELWNGPSVFLFPPKPKDTLMISRTPEVTCVVVDVSDEDPEVKFNWYVDGVEVHNAKTKPREELYNSTYRVVSVLTVLHQDWLNGKEYKCKVSNTALPKPIEKTISKAKGQPREPQVYTLPPSREEMTKNQVSLTCLVKGFYPSDIAVEWESNGQPENNYKTTPPVLDSDGSFFLYSKLTVDKSRWQQGNVFSCSVMHEALHNHYTQKSLSLSP
light: DIVMTQSPATLSLSPGERATLSCTSSQSVYHANWLSWFQQKPGQPPKLLIYWASTLAYGVPSRFSGSGSGTDFTLTISSLQPEDAATYYCAGGYGGGRYAFGQGTKVEIKRTVAAPSVFIFPPSDEQLKSGTASVVCLLNNFYPREAKVQWKVDNALQSGNSQESVTEQDSKDSTYSLSSTLTLSKADYEKHKVYACEVTHQGLSSPVTKSFNRGEC
notes: also called MY518 (as the text names this set of substitutions)
Turning to B1, the Kd in [1] came out at 890 nM; in assay [2], 900 nM; in assay [3], 2400 nM; in assay [4], 260 nM; in assay [5], 4.2 µM; in [6], 850 nM. For the same molecule, the dissociation constant Kd in [7] came to 670 nM; in assay [8] it was 480 nM; in [9], 23 µM.

The Kd is the constant that tells how readily two partners part at equilibrium.
